Patent publication US20230340151A1 (Pfizer, published 2023)

Assays:
Assay in all cases: flow cytometry on cells displaying the construct
[1] = target: CID1946 (human GUCY2c point mutant) (human)
Source text: (§1) Cells were then washed three times with PBS+0.5% BSA buffer. […] Cells were washed three times with PBS+0.5% BSA buffer and then analyzed on a flow cytometer.
(§2) MFI (median fluorescence intensity) of anti-GUCY2c antibody binding to the cells was normalized to expression on cell surface measured by MFI of anti-tag antibodies. All the cells expressed V5 and HA on the cell surface for expression normalization.

[2] = target: CID1949 (human GUCY2c point mutant) (human)
Source text: as §1, §2

[3] = target: T1, CID1880 (human-chicken GUCY2c chimera) (human/chicken)
T1 chain: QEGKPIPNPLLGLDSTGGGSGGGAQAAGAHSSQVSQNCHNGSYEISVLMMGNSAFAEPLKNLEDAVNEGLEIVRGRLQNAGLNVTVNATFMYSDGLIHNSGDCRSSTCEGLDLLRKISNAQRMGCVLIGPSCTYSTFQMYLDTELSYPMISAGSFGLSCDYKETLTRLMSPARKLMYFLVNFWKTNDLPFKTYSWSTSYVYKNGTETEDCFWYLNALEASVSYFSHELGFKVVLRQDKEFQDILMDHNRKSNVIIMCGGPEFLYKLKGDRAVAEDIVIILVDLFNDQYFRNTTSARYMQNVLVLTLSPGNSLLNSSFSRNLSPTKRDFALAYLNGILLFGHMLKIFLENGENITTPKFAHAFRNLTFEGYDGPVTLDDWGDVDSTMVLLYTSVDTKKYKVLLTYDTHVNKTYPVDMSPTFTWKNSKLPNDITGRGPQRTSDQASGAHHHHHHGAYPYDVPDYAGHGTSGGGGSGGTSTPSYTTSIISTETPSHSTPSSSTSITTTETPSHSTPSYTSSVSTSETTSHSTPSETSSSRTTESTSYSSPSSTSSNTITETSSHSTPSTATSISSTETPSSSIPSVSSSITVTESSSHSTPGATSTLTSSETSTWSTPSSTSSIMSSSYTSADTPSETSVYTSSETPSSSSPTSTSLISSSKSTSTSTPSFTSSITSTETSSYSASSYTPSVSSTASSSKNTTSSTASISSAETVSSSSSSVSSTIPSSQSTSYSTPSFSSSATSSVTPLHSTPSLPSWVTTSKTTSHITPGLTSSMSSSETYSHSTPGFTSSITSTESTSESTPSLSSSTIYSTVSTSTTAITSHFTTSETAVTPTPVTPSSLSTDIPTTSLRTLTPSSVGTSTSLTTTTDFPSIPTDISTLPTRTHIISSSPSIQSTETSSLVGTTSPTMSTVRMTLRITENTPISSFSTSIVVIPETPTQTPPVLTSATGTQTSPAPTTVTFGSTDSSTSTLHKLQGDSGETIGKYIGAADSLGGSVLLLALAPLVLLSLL
Source text: as §1, §2

[4] = target: T2, CID1878 (human-chicken GUCY2c chimera) (human/chicken)
T2 chain: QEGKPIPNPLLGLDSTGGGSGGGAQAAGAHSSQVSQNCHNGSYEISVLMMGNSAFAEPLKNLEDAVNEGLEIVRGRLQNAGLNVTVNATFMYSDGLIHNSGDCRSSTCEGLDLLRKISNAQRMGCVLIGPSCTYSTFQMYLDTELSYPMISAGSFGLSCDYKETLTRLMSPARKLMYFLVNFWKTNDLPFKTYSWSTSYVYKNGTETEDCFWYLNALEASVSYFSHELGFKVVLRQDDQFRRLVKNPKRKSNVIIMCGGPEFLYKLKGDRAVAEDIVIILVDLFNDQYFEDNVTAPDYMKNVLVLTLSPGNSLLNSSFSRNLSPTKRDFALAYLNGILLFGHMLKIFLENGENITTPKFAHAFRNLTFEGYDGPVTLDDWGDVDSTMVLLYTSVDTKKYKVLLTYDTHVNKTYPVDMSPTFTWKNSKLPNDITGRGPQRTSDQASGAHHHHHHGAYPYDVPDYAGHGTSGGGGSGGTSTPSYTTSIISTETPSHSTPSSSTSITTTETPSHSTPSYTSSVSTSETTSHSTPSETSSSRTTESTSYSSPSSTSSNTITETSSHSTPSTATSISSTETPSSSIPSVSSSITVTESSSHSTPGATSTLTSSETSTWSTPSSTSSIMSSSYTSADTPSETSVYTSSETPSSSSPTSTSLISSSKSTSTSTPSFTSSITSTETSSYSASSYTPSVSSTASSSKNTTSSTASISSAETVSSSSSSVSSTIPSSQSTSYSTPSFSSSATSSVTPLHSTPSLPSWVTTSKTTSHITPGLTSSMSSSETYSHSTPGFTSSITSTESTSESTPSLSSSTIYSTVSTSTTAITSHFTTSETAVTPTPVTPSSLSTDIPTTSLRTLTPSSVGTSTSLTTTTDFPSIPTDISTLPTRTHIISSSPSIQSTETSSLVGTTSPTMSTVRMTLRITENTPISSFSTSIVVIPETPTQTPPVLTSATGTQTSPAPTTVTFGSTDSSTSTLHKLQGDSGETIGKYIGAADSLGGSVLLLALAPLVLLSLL
Source text: as §1, §2

[5] = target: CID1941 (human GUCY2c point mutant) (human)
Source text: as §1, §2

[6] = target: CID1942 (human GUCY2c point mutant) (human)
Source text: as §1, §2

Measured: binding result

B1: GUCY2C-1608 (bispecific antibody)
chain 1: DIQLTQSPSSLSASVGDRVTITCRASESVDYYGSSLLQWYQQKPGKAPKLLIYAASKLASGVPSRFSGSGSGTDFTLTISSLQPEDFATYYCQQTRKAYTFGQGTKLEIKGGGSGGGGEVQLVESGGGLVQPGGSLRLSCAASGFTFSDYYMTWVRQAPGKGLEWVAFIRNQARGYTSDHNPSVKGRFTISRDNAKNSLYLQMNSLRAEDTAVYYCARDRPSYYVLDYWGQGTTVTVSSGCPPCPAPEAAGAPSVFLFPPKPKDTLMISRTPEVTCVVVDVSHEDPEVKFNWYVDGVEVHNAKTKPREEQYNSTYRVVSVLTVLHQDWLNGKEYKCKVSNKALPAPIEKTISKAKGQPREPQVCTLPPSREEMTKNQVSLWCLVKGFYPSDIAVEWESNGQPENNYKTTPPVLDSDGSFFLYSKLTVDKSRWQQGNVFSCSVMHEALHNHYTQKSLSLSPG
chain 2: DIQMTQSPSSLSASVGDRVTITCTSSQSLFNVRSQKNYLAWYQQKPGKAPKLLIYWASTRESGVPSRFSGSGSGTDFTLTISSLQPEDFATYYCKQSYDLFTFGGGTKVEIKGGGGSGGGGEVQLVESGGGLVQPGGSLRLSCAASGFTFSSYWMHWVRQAPGKGLEWIGEIKPSNELTNVHEKFKDRFTISVDKAKNSAYLQMNSLRAEDTAVYYCTRTITTTEGYWFFDVWGQGTLVTVSSGCPPCPAPEAAGAPSVFLFPPKPKDTLMISRTPEVTCVVVDVSHEDPEVKFNWYVDGVEVHNAKTKPREEQYNSTYRVVSVLTVLHQDWLNGKEYKCKVSNKALPAPIEKTISKAKGQPREPQVYTLPPCREEMTKNQVSLSCAVKGFYPSDIAVEWESNGQPENNYKTTPPVLDSDGSFFLVSKLTVDKSRWQQGNVFSCSVMHEALHNHYTQKSLSLSPG
notes: also called GUCY2c CD3 bispecific
binds: [1] | [2] | [3] | [4] | [5] | [6]
